According to US20210388087A1 (Chugai, published 2021):

B1: dBBDu183H P61H / dBBDu072L (antibody, name in Kabat numbering, V domains shown)
VH: QVQLVESGGGLVQPGRSLRLSCAASGFTFSNAWMHWVRQAPGKGLEWVAQIKDKGNAYAAYYAHSVKGRFTISRDDSKNSIYLQMNSLKTEDTAVYYCHYVHYASASTVLPAFGVDAWGQGTTVTVSS
VL: DIVMTQSPLSLPVTPGEPASISCQASQELVHMNRNTYLHWYQQKPGQAPRLLIYKVSNRFPGVPDRFSGSGSGTDFTLKISRVEAEDVGVYYCAQGTSVPFTFGQGTKLEIK
notes: as m1, one VH change
B2: dBBDu183H P61N / dBBDu072L (antibody, name in Kabat numbering, V domains shown)
VH: QVQLVESGGGLVQPGRSLRLSCAASGFTFSNAWMHWVRQAPGKGLEWVAQIKDKGNAYAAYYANSVKGRFTISRDDSKNSIYLQMNSLKTEDTAVYYCHYVHYASASTVLPAFGVDAWGQGTTVTVSS
VL: DIVMTQSPLSLPVTPGEPASISCQASQELVHMNRNTYLHWYQQKPGQAPRLLIYKVSNRFPGVPDRFSGSGSGTDFTLKISRVEAEDVGVYYCAQGTSVPFTFGQGTKLEIK
notes: as m1, one VH change
B3: dBBDu183H S62E / dBBDu072L (antibody, name in Kabat numbering, V domains shown)
VH: QVQLVESGGGLVQPGRSLRLSCAASGFTFSNAWMHWVRQAPGKGLEWVAQIKDKGNAYAAYYAPEVKGRFTISRDDSKNSIYLQMNSLKTEDTAVYYCHYVHYASASTVLPAFGVDAWGQGTTVTVSS
VL: DIVMTQSPLSLPVTPGEPASISCQASQELVHMNRNTYLHWYQQKPGQAPRLLIYKVSNRFPGVPDRFSGSGSGTDFTLKISRVEAEDVGVYYCAQGTSVPFTFGQGTKLEIK
notes: as m1, one VH change
B4: dBBDu183H P61Q / dBBDu072L (antibody, name in Kabat numbering, V domains shown)
VH: QVQLVESGGGLVQPGRSLRLSCAASGFTFSNAWMHWVRQAPGKGLEWVAQIKDKGNAYAAYYAQSVKGRFTISRDDSKNSIYLQMNSLKTEDTAVYYCHYVHYASASTVLPAFGVDAWGQGTTVTVSS
VL: DIVMTQSPLSLPVTPGEPASISCQASQELVHMNRNTYLHWYQQKPGQAPRLLIYKVSNRFPGVPDRFSGSGSGTDFTLKISRVEAEDVGVYYCAQGTSVPFTFGQGTKLEIK
notes: as m1, one VH change
B5: dBBDu183H P100eD / dBBDu072L (antibody, name in Kabat numbering, V domains shown)
VH: QVQLVESGGGLVQPGRSLRLSCAASGFTFSNAWMHWVRQAPGKGLEWVAQIKDKGNAYAAYYAPSVKGRFTISRDDSKNSIYLQMNSLKTEDTAVYYCHYVHYASASTVLDAFGVDAWGQGTTVTVSS
VL: DIVMTQSPLSLPVTPGEPASISCQASQELVHMNRNTYLHWYQQKPGQAPRLLIYKVSNRFPGVPDRFSGSGSGTDFTLKISRVEAEDVGVYYCAQGTSVPFTFGQGTKLEIK
notes: as m1, one VH change
B6: dBBDu183H P61Y / dBBDu072L (antibody, name in Kabat numbering, V domains shown)
VH: QVQLVESGGGLVQPGRSLRLSCAASGFTFSNAWMHWVRQAPGKGLEWVAQIKDKGNAYAAYYAYSVKGRFTISRDDSKNSIYLQMNSLKTEDTAVYYCHYVHYASASTVLPAFGVDAWGQGTTVTVSS
VL: DIVMTQSPLSLPVTPGEPASISCQASQELVHMNRNTYLHWYQQKPGQAPRLLIYKVSNRFPGVPDRFSGSGSGTDFTLKISRVEAEDVGVYYCAQGTSVPFTFGQGTKLEIK
notes: as m1, one VH change
B7: dBBDu183H P100eS / dBBDu072L (antibody, name in Kabat numbering, V domains shown)
VH: QVQLVESGGGLVQPGRSLRLSCAASGFTFSNAWMHWVRQAPGKGLEWVAQIKDKGNAYAAYYAPSVKGRFTISRDDSKNSIYLQMNSLKTEDTAVYYCHYVHYASASTVLSAFGVDAWGQGTTVTVSS
VL: DIVMTQSPLSLPVTPGEPASISCQASQELVHMNRNTYLHWYQQKPGQAPRLLIYKVSNRFPGVPDRFSGSGSGTDFTLKISRVEAEDVGVYYCAQGTSVPFTFGQGTKLEIK
notes: as m1, one VH change
B8: dBBDu183H P61R / dBBDu072L (antibody, name in Kabat numbering, V domains shown)
VH: QVQLVESGGGLVQPGRSLRLSCAASGFTFSNAWMHWVRQAPGKGLEWVAQIKDKGNAYAAYYARSVKGRFTISRDDSKNSIYLQMNSLKTEDTAVYYCHYVHYASASTVLPAFGVDAWGQGTTVTVSS
VL: DIVMTQSPLSLPVTPGEPASISCQASQELVHMNRNTYLHWYQQKPGQAPRLLIYKVSNRFPGVPDRFSGSGSGTDFTLKISRVEAEDVGVYYCAQGTSVPFTFGQGTKLEIK
notes: as m1, one VH change
B9: dBBDu183H P100eG / dBBDu072L (antibody, name in Kabat numbering, V domains shown)
VH: QVQLVESGGGLVQPGRSLRLSCAASGFTFSNAWMHWVRQAPGKGLEWVAQIKDKGNAYAAYYAPSVKGRFTISRDDSKNSIYLQMNSLKTEDTAVYYCHYVHYASASTVLGAFGVDAWGQGTTVTVSS
VL: DIVMTQSPLSLPVTPGEPASISCQASQELVHMNRNTYLHWYQQKPGQAPRLLIYKVSNRFPGVPDRFSGSGSGTDFTLKISRVEAEDVGVYYCAQGTSVPFTFGQGTKLEIK
notes: as m1, one VH change
B10: dBBDu183H P100eQ / dBBDu072L (antibody, name in Kabat numbering, V domains shown)
VH: QVQLVESGGGLVQPGRSLRLSCAASGFTFSNAWMHWVRQAPGKGLEWVAQIKDKGNAYAAYYAPSVKGRFTISRDDSKNSIYLQMNSLKTEDTAVYYCHYVHYASASTVLQAFGVDAWGQGTTVTVSS
VL: DIVMTQSPLSLPVTPGEPASISCQASQELVHMNRNTYLHWYQQKPGQAPRLLIYKVSNRFPGVPDRFSGSGSGTDFTLKISRVEAEDVGVYYCAQGTSVPFTFGQGTKLEIK
notes: as m1, one VH change
B11: dBBDu183H P61T / dBBDu072L (antibody, name in Kabat numbering, V domains shown)
VH: QVQLVESGGGLVQPGRSLRLSCAASGFTFSNAWMHWVRQAPGKGLEWVAQIKDKGNAYAAYYATSVKGRFTISRDDSKNSIYLQMNSLKTEDTAVYYCHYVHYASASTVLPAFGVDAWGQGTTVTVSS
VL: DIVMTQSPLSLPVTPGEPASISCQASQELVHMNRNTYLHWYQQKPGQAPRLLIYKVSNRFPGVPDRFSGSGSGTDFTLKISRVEAEDVGVYYCAQGTSVPFTFGQGTKLEIK
notes: as m1, one VH change
B12: dBBDu183H P100eH / dBBDu072L (antibody, name in Kabat numbering, V domains shown)
VH: QVQLVESGGGLVQPGRSLRLSCAASGFTFSNAWMHWVRQAPGKGLEWVAQIKDKGNAYAAYYAPSVKGRFTISRDDSKNSIYLQMNSLKTEDTAVYYCHYVHYASASTVLHAFGVDAWGQGTTVTVSS
VL: DIVMTQSPLSLPVTPGEPASISCQASQELVHMNRNTYLHWYQQKPGQAPRLLIYKVSNRFPGVPDRFSGSGSGTDFTLKISRVEAEDVGVYYCAQGTSVPFTFGQGTKLEIK
notes: as m1, one VH change
B13: dBBDu183H P100eT / dBBDu072L (antibody, name in Kabat numbering, V domains shown)
VH: QVQLVESGGGLVQPGRSLRLSCAASGFTFSNAWMHWVRQAPGKGLEWVAQIKDKGNAYAAYYAPSVKGRFTISRDDSKNSIYLQMNSLKTEDTAVYYCHYVHYASASTVLTAFGVDAWGQGTTVTVSS
VL: DIVMTQSPLSLPVTPGEPASISCQASQELVHMNRNTYLHWYQQKPGQAPRLLIYKVSNRFPGVPDRFSGSGSGTDFTLKISRVEAEDVGVYYCAQGTSVPFTFGQGTKLEIK
notes: as m1, one VH change
B14: dBBDu183H S62D / dBBDu072L (antibody, name in Kabat numbering, V domains shown)
VH: QVQLVESGGGLVQPGRSLRLSCAASGFTFSNAWMHWVRQAPGKGLEWVAQIKDKGNAYAAYYAPDVKGRFTISRDDSKNSIYLQMNSLKTEDTAVYYCHYVHYASASTVLPAFGVDAWGQGTTVTVSS
VL: DIVMTQSPLSLPVTPGEPASISCQASQELVHMNRNTYLHWYQQKPGQAPRLLIYKVSNRFPGVPDRFSGSGSGTDFTLKISRVEAEDVGVYYCAQGTSVPFTFGQGTKLEIK
notes: as m1, one VH change
B15: dBBDu183H P61W / dBBDu072L (antibody, name in Kabat numbering, V domains shown)
VH: QVQLVESGGGLVQPGRSLRLSCAASGFTFSNAWMHWVRQAPGKGLEWVAQIKDKGNAYAAYYAWSVKGRFTISRDDSKNSIYLQMNSLKTEDTAVYYCHYVHYASASTVLPAFGVDAWGQGTTVTVSS
VL: DIVMTQSPLSLPVTPGEPASISCQASQELVHMNRNTYLHWYQQKPGQAPRLLIYKVSNRFPGVPDRFSGSGSGTDFTLKISRVEAEDVGVYYCAQGTSVPFTFGQGTKLEIK
notes: as m1, one VH change
B16: dBBDu183H P61K / dBBDu072L (antibody, name in Kabat numbering, V domains shown)
VH: QVQLVESGGGLVQPGRSLRLSCAASGFTFSNAWMHWVRQAPGKGLEWVAQIKDKGNAYAAYYAKSVKGRFTISRDDSKNSIYLQMNSLKTEDTAVYYCHYVHYASASTVLPAFGVDAWGQGTTVTVSS
VL: DIVMTQSPLSLPVTPGEPASISCQASQELVHMNRNTYLHWYQQKPGQAPRLLIYKVSNRFPGVPDRFSGSGSGTDFTLKISRVEAEDVGVYYCAQGTSVPFTFGQGTKLEIK
notes: as m1, one VH change
B17: dBBDu183H P100eK / dBBDu072L (antibody, name in Kabat numbering, V domains shown)
VH: QVQLVESGGGLVQPGRSLRLSCAASGFTFSNAWMHWVRQAPGKGLEWVAQIKDKGNAYAAYYAPSVKGRFTISRDDSKNSIYLQMNSLKTEDTAVYYCHYVHYASASTVLKAFGVDAWGQGTTVTVSS
VL: DIVMTQSPLSLPVTPGEPASISCQASQELVHMNRNTYLHWYQQKPGQAPRLLIYKVSNRFPGVPDRFSGSGSGTDFTLKISRVEAEDVGVYYCAQGTSVPFTFGQGTKLEIK
notes: as m1, one VH change
B18: dBBDu183H P100eN / dBBDu072L (antibody, name in Kabat numbering, V domains shown)
VH: QVQLVESGGGLVQPGRSLRLSCAASGFTFSNAWMHWVRQAPGKGLEWVAQIKDKGNAYAAYYAPSVKGRFTISRDDSKNSIYLQMNSLKTEDTAVYYCHYVHYASASTVLNAFGVDAWGQGTTVTVSS
VL: DIVMTQSPLSLPVTPGEPASISCQASQELVHMNRNTYLHWYQQKPGQAPRLLIYKVSNRFPGVPDRFSGSGSGTDFTLKISRVEAEDVGVYYCAQGTSVPFTFGQGTKLEIK
notes: as m1, one VH change
B19: dBBDu183H P100eE / dBBDu072L (antibody, name in Kabat numbering, V domains shown)
VH: QVQLVESGGGLVQPGRSLRLSCAASGFTFSNAWMHWVRQAPGKGLEWVAQIKDKGNAYAAYYAPSVKGRFTISRDDSKNSIYLQMNSLKTEDTAVYYCHYVHYASASTVLEAFGVDAWGQGTTVTVSS
VL: DIVMTQSPLSLPVTPGEPASISCQASQELVHMNRNTYLHWYQQKPGQAPRLLIYKVSNRFPGVPDRFSGSGSGTDFTLKISRVEAEDVGVYYCAQGTSVPFTFGQGTKLEIK
notes: as m1, one VH change
B20: dBBDu183H P100eR / dBBDu072L (antibody, name in Kabat numbering, V domains shown)
VH: QVQLVESGGGLVQPGRSLRLSCAASGFTFSNAWMHWVRQAPGKGLEWVAQIKDKGNAYAAYYAPSVKGRFTISRDDSKNSIYLQMNSLKTEDTAVYYCHYVHYASASTVLRAFGVDAWGQGTTVTVSS
VL: DIVMTQSPLSLPVTPGEPASISCQASQELVHMNRNTYLHWYQQKPGQAPRLLIYKVSNRFPGVPDRFSGSGSGTDFTLKISRVEAEDVGVYYCAQGTSVPFTFGQGTKLEIK
notes: as m1, one VH change
B21: dBBDu183H P61S / dBBDu072L (antibody, name in Kabat numbering, V domains shown)
VH: QVQLVESGGGLVQPGRSLRLSCAASGFTFSNAWMHWVRQAPGKGLEWVAQIKDKGNAYAAYYASSVKGRFTISRDDSKNSIYLQMNSLKTEDTAVYYCHYVHYASASTVLPAFGVDAWGQGTTVTVSS
VL: DIVMTQSPLSLPVTPGEPASISCQASQELVHMNRNTYLHWYQQKPGQAPRLLIYKVSNRFPGVPDRFSGSGSGTDFTLKISRVEAEDVGVYYCAQGTSVPFTFGQGTKLEIK
notes: as m1, one VH change

Molecular target: T1, Human CD137 ECD (human)
T1 construct: also called 4-1BB
T1 sequence (chain, as listed by the source limits assumed): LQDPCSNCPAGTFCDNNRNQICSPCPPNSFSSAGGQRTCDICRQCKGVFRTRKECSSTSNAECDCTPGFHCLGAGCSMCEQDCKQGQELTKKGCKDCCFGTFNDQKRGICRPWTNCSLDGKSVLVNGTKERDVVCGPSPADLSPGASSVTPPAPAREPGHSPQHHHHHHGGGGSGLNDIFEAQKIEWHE
Assay: SPR, vs parent H183/L072

In order of falling “fold change of affinity” value:
1. B11  1.4 fold
2. B2  1.2 fold
3. B21  1.1 fold
4. B8  1 fold
5. B1  0.9 fold
6. B14  0.9 fold
7. B3  0.8 fold
8. B15  0.8 fold
9. B16  0.8 fold
10. B19  0.8 fold
11. B6  0.7 fold
12. B4  0.6 fold
13. B7  0.4 fold
14. B9  0.4 fold
15. B10  0.4 fold
16. B5  0.3 fold
17. B17  0.3 fold
18. B20  0.3 fold
19. B13  0.2 fold
20. B18  0.2 fold
21. B12  0.1 fold
